Laboratory results taken from publication PMC8482623 (Nature structural & molecular biology, 2020).

Target: the molecule itself
Test: crystal structure

B1: truncated mouse Bcs1 lacking the TM and Bcs1-specific domains (ΔNmBcs1, residues 151-418) (domain or fragment)
chain: not shown
For B1, which “stoichiometry N” value is on record?
Its value is 7.
